B1: ZNF511 (parent)
chain: YEHHYHTLHGNVCSFCKRAFPSGH
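Note: lentivirally expressed fusions sorted by FACS into six bins by GFP to DsRed ratio, PSI derived from sequencing read proportions per bin multiplied by bin number.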

This series covers variants of B1. In words: protein stability index of a GFP-peptide fusion (GPS, HEK-293T) (PSI 1-6); higher = more stable. Conditions: c terminus: a fixed tail appended.
For the variant YEHHYHTLHGNVCSFCTRAFPSGH, the protein stability index came to 2.02.

Regarding YEHHYHTLHGNVCSFCDRAFPSGH, the protein stability index stood at 2.5.

Consider YEHHYHTLHGNVCSFCIRAFPSGH, for which the protein stability index came out at 1.84.

On to YEHHYHTLHGNVCSFCMRAFPSGH, for which the protein stability index worked out at 1.77.

With YEHHYHTLHGNVCSFCSRAFPSGH, the protein stability index turned out to be 2.22.

Consider YEHHYPTLHGNVCSFCKRAFPSGH, for which the protein stability index came to 1.68.

YEHHYATLHGNVCSFCKRAFPSGH: the protein stability index is 1.88.

Turning to YEHHYITLHGNVCSFCKRAFPSGH, the protein stability index was 2.15.

Consider YEHHYDTLHGNVCSFCKRAFPSGH, for which the protein stability index is 2.34.

On to YEHHYHTLHGNVCSFHKRAFPSGH, for which the protein stability index was found to be 1.82.

YEHHYHTLHGNVCSFKKRAFPSGH: the protein stability index is 2.35.

For YEHHYHTLHGNVCSFRKRAFPSGH, the protein stability index worked out at 2.17.

On to YEHHYHTLHGNVCSFNKRAFPSGH, for which the protein stability index is 2.12.

Regarding YEHHYHTLHGNVCSFPKRAFPSGH, the protein stability index was determined as 2.02.

With YEHHYHTLHGDVCSFCKRAFPSGH, the protein stability index came out at 2.75.

On to YEHHYHTLHGTVCSFCKRAFPSGH, for which the protein stability index amounted to 2.68.

Take YEHHYHTLHGCVCSFCKRAFPSGH: the protein stability index stood at 2.73.

For the variant YEHHYHTLHGFVCSFCKRAFPSGH, the protein stability index came to 2.6.

Take YEHHYHTLHGAVCSFCKRAFPSGH: the protein stability index came to 2.64.

With YWHHYHTLHGNVCSFCKRAFPSGH, the protein stability index amounted to 2.85.

Turning to YKHHYHTLHGNVCSFCKRAFPSGH, the protein stability index was found to be 1.76.

As for YVHHYHTLHGNVCSFCKRAFPSGH, the protein stability index was determined as 2.89.

With YLHHYHTLHGNVCSFCKRAFPSGH, the protein stability index stood at 1.65.

For the variant YYHHYHTLHGNVCSFCKRAFPSGH, the protein stability index stood at 2.27.

Turning to YQHHYHTLHGNVCSFCKRAFPSGH, the protein stability index stood at 2.43.

As for YIHHYHTLHGNVCSFCKRAFPSGH, the protein stability index came out at 2.34.

For the variant YFHHYHTLHGNVCSFCKRAFPSGH, the protein stability index worked out at 3.12.

For YHHHYHTLHGNVCSFCKRAFPSGH, the protein stability index came to 2.66.

Consider YEHHYHTLHGNVMSFCKRAFPSGH, for which the protein stability index came out at 1.83.

Consider YEHHYHTLHGNVRSFCKRAFPSGH, for which the protein stability index was found to be 2.17.

Turning to YEHHYHTLHGNVHSFCKRAFPSGH, the protein stability index is 1.9.

Consider YEHHYHTLHGNVCSFCKRSFPSGH, for which the protein stability index came to 2.28.

Regarding YEHHYHTLHGNVCSFCKRFFPSGH, the protein stability index came to 2.84.

Regarding YEHHYHTLHGNVCSFCKRNFPSGH, the protein stability index came to 2.37.

On to YEHHYHTLHGNVCSFCKRGFPSGH, for which the protein stability index turned out to be 1.96.

On to YEHHYHTLHGNVCSFCKRQFPSGH, for which the protein stability index came to 1.47.

Take YEHHYHTLHGNVCSFCKWAFPSGH: the protein stability index worked out at 1.79.

With YEHHYHTLHGNVCSFCKMAFPSGH, the protein stability index is 1.96.

YEHHYHTLHGNVCSFCKLAFPSGH: the protein stability index worked out at 2.17.

As for YEHHYHTLHGNVCSFCKQAFPSGH, the protein stability index came to 1.53.

For YEHHYHTLHGNVCSFCKKAFPSGH, the protein stability index was found to be 2.23.

YEHHYHTLHGNVCSFCKDAFPSGH: the protein stability index was 2.46.

For YEHHYHTLHGNVCSFCKNAFPSGH, the protein stability index worked out at 2.37.

In the case of YEHHYHTLHGNNCSFCKRAFPSGH, the protein stability index was 2.73.

Take YEHHYHTLHGNSCSFCKRAFPSGH: the protein stability index is 2.41.

YEHHYHTLHGNICSFCKRAFPSGH: the protein stability index worked out at 2.3.

Consider YEHHYHTLHGNYCSFCKRAFPSGH, for which the protein stability index was found to be 2.13.

As to YEHHYHTLHGNLCSFCKRAFPSGH, the protein stability index turned out to be 2.06.

For the variant YEHHYHTLHGNMCSFCKRAFPSGH, the protein stability index turned out to be 2.17.

For YEHHYHTLHGNVCSFCKRAFPDGH, the protein stability index came out at 2.33.

For YEHHYHTLHGNVCSFCKRAFPEGH, the protein stability index worked out at 2.44.

For YEHHYHTLHGNVCSFCKRAFPMGH, the protein stability index was found to be 2.89.

Turning to YEHHYHTLHGNVCSFCKRAFPGGH, the protein stability index was 2.02.

Take YEHHYHTCHGNVCSFCKRAFPSGH: the protein stability index was 3.62.

YEHHYHTIHGNVCSFCKRAFPSGH: the protein stability index amounted to 2.44.

Consider YEHHYHTGHGNVCSFCKRAFPSGH, for which the protein stability index amounted to 2.52.

With YEHHYHTFHGNVCSFCKRAFPSGH, the protein stability index came out at 2.62.

Take YEHHYHTYHGNVCSFCKRAFPSGH: the protein stability index is 2.6.

For YEHHYHTLHGNVCSFCKRAFPSLH, the protein stability index is 1.63.

For YEHHYHTLHGNVCSFCKRAFPSPH, the protein stability index is 2.27.

Take YEHHYHTLHGNVCSFCKRAFPSIH: the protein stability index amounted to 1.86.

On to YEHHYHTLHGNVCSFCKRAFPSAH, for which the protein stability index came to 2.1.

With YEHHYHTLHGNVCSFCKRAFPSYH, the protein stability index worked out at 1.97.

YEHHYHTLHGNVCSFCKRAFPSVH: the protein stability index worked out at 1.61.

As to YEHHYHTLHGNVCSFCKRAFPSTH, the protein stability index turned out to be 2.16.

In the case of YEHHYHTLHGNVCSFCKRAFPSEH, the protein stability index worked out at 1.86.

Turning to YEHHYHTLTGNVCSFCKRAFPSGH, the protein stability index came to 2.16.

Take YEHHYHTLWGNVCSFCKRAFPSGH: the protein stability index stood at 1.83.

As for YEHHYHTLSGNVCSFCKRAFPSGH, the protein stability index stood at 1.72.

As for YEHHYHTLEGNVCSFCKRAFPSGH, the protein stability index stood at 1.93.

Take YEHHYHTLVGNVCSFCKRAFPSGH: the protein stability index worked out at 2.57.

For YEHHYHTLIGNVCSFCKRAFPSGH, the protein stability index is 2.28.

For the variant YEHHYHTLHGNVCSPCKRAFPSGH, the protein stability index was determined as 2.01.

For the variant YEHHYHTLHGNVCSLCKRAFPSGH, the protein stability index came to 2.32.

Consider YEHHYHTLHGNVCSGCKRAFPSGH, for which the protein stability index came out at 2.93.

For YEHHYHTLHGNVCSNCKRAFPSGH, the protein stability index came to 2.72.

Regarding YEHHYHTLHGNVCSRCKRAFPSGH, the protein stability index amounted to 2.35.

In the case of YEHHYHTLHGNVCSYCKRAFPSGH, the protein stability index came to 2.31.

As to YEHHYHTLHGNVCSACKRAFPSGH, the protein stability index was 2.76.

In the case of YEHCYHTLHGNVCSFCKRAFPSGH, the protein stability index was 3.26.

As to YEHRYHTLHGNVCSFCKRAFPSGH, the protein stability index was found to be 1.73.

For YEHQYHTLHGNVCSFCKRAFPSGH, the protein stability index turned out to be 2.1.

For YEHYYHTLHGNVCSFCKRAFPSGH, the protein stability index was determined as 1.93.

On to YEHNYHTLHGNVCSFCKRAFPSGH, for which the protein stability index turned out to be 2.23.

For YEHWYHTLHGNVCSFCKRAFPSGH, the protein stability index stood at 1.73.

On to YEHAYHTLHGNVCSFCKRAFPSGH, for which the protein stability index is 1.75.

As to YEHHYHTLHGNVCSFCKRAFNSGH, the protein stability index came to 1.97.

Take YEHHYHTLHGNVCSFCKRAFSSGH: the protein stability index was determined as 2.48.

For YEHHYHTLHGNVCSFCKRAFESGH, the protein stability index turned out to be 2.2.

Consider YEHHYHTLHGNVCSFCKRAFVSGH, for which the protein stability index came out at 2.34.

On to YEHHYHTLHGNVCSFCKRAFQSGH, for which the protein stability index came out at 1.97.

As to YEHHYHTLHGNVCSFCKRAFPSGP, the protein stability index turned out to be 2.08.

For the variant YEHHYHTLHGNVCSFCKRAFPSGD, the protein stability index was 2.35.

Consider YEHHYHTLHGNVCSFCKRAFPSGQ, for which the protein stability index was 2.08.

Source of the values: the supplement of paper PMC10567573.
